We go through 13 molecules from patent publication US20240316154A1 (Eli Lilly, published 2024).

One test concerns the target T1, Human serum albumin (human, UniProt P02768 25-609).
T1 construct: bought; immobilised on a CM5 chip by amine coupling; also called Human SA
Nature of the test: SPR, SA on chip, VHH 300 nM, 25 C. On the technique in general: In SPR one partner is held on a chip, and binding of the other changes the refractive index at the surface.

Test [1] addresses T2, Cynomolgus monkey serum albumin (cynomolgus monkey, UniProt A2V9Z4 25-608).
T2 construct: bought; immobilised on a CM5 chip by amine coupling; also called Cyno SA
Nature of the test: SPR, SA on chip, VHH 300 nM, 25 C.
Procedure: (§1) Immobilization of SA to a Series S Sensor Chip CM5 surface is performed according to the manufacturer's instructions (amine coupling kit BR-1000-50). […] Human SA is obtained from Sigma Aldrich (St. Louis, MO; Cat. No. A8763). […] Mouse SA is obtained from Sigma Aldrich (Cat. No. A3559). Rat SA is obtained from Sigma Aldrich (Cat. No. A4538). Pig SA is obtained from Sigma Aldrich (Cat. No. A4414). […] Cow SA is obtained from Sigma Aldrich (Cat. No. A7030). The various SAs are covalently immobilized through free amines onto a carboxymethyl dextran-coated sensor chip CM5 targeting a surface density of average approximately 77 (58-98) RU. Excess reactive groups on the surfaces (flow cell 1 and 2) are deactivated by injecting 70 μL of 1 M ethanolamine hydrochloride-NaOH, pH 8.5, at 10 μL/min.
(§2) VHH moieties are diluted in HBS-EP+buffer (10 mM HEPES, pH 7.6, 150 mM NaCl, 3 mM EDTA, and 0.05% Polysorbate 20) at concentrations of 300 nM. 150 μL of sample is individually injected sequentially across the immobilized SAs surface and is dissociated for 600 sec at a flow rate of 50 L/min at 25 C. […] The resulting sensorgrams are analyzed using Biacore 8K Insight Evaluation Software (version 2.0.15.12933) to calculate the dissociation rate (kd).

The target of test [2] is T3, Mouse serum albumin (mouse, UniProt P07724 25-608).
T3 construct: bought; immobilised on a CM5 chip by amine coupling; also called Mouse SA
As to the kind of experiment: SPR, SA on chip, VHH 300 nM, 25 C.
Procedure: as §1, §2

The target of test [3] is T4, Rat serum albumin (rat, UniProt P02770 25-608).
T4 construct: bought; immobilised on a CM5 chip by amine coupling; also called Rat SA
As to the kind of experiment: SPR, SA on chip, VHH 300 nM, 25 C.
Procedure: as §1, §2

The target of test [4] is T5, Pig serum albumin (pig, UniProt P08835 25-607).
T5 construct: bought; immobilised on a CM5 chip by amine coupling; also called Pig SA
As to the kind of experiment: SPR, SA on chip, VHH 300 nM, 25 C.
Procedure: as §1, §2

Test [5] addresses T6, Dog serum albumin (dog, UniProt P49822 25-608).
T6 construct: bought; immobilised on a CM5 chip by amine coupling; also called Dog SA
As to the kind of experiment: SPR, SA on chip, VHH 300 nM, 25 C.
Procedure: as §1, §2

The target of test [6] is T3, Mouse serum albumin. As to the kind of experiment: SPR, SA on chip, 25 C.
For test [7], the target named is T4, Rat serum albumin. Nature of the test: SPR, SA on chip, 25 C.
The target of test [8] is T5, Pig serum albumin. Nature of the test: SPR, SA on chip, 25 C.
For another test, the target named is T7, Cow serum albumin (cow, UniProt P02769 25-607).
T7 construct: bought; immobilised on a CM5 chip by amine coupling; also called Cow SA
Nature of the test: SPR, SA on chip, 25 C.

The target of test [9] is T6, Dog serum albumin. Nature of the test: SPR, SA on chip, 25 C.

Procedure for Human serum albumin: as §1, §2

B1: VHH moiety 4 (MC6.1C80.43) (VHH)
VHH: EVQLLESGGGLVQPGGSLRLSCAASGRYIDETAVAWFRQAPGKGREFVAGIGGGVDITYYADSVKGRFTISRDNSKNTLYLQMNSLRPEDTAVYYCAARPGRPLITSKVADLYPYWGQGTLVTVSS
Take B1: the koff with Human serum albumin was determined as 0.00021 s⁻¹; in test [1] it was 0.00053 s⁻¹; in the test with Mouse serum albumin [2], 0.0043 s⁻¹; with Rat serum albumin [3], 0.0033 s⁻¹; with Pig serum albumin [4], 0.0057 s⁻¹; with Dog serum albumin [5], 0.0017 s⁻¹.

B2: VHH moiety 16 (MC6.1C22-Y59T) (VHH)
VHH: EVQLLESGGGLVQPGGSLRLSCAASGRYIDETAVAWFRQAPGKEREFVAGIGGGVDITTYADSVKGRFTISRDNSKNTLYLQMNSLRPEDTAVYYCAARPGRPLITSKVADLYPYWGQGTLVTVSS
Consider B2, for which the binding result with Mouse serum albumin [6], with Rat serum albumin [7], in the test with Pig serum albumin [8] and in the test with Cow serum albumin was “no binding (tested: 300 nM)” in each case. Also, the koff was determined as 0.0039 s⁻¹ with Human serum albumin and 0.015 s⁻¹ in [1].

B3: VHH moiety 12 (MC6.1C22-Y59A) (VHH)
VHH: EVQLLESGGGLVQPGGSLRLSCAASGRYIDETAVAWFRQAPGKEREFVAGIGGGVDITAYADSVKGRFTISRDNSKNTLYLQMNSLRPEDTAVYYCAARPGRPLITSKVADLYPYWGQGTLVTVSS
B3: the binding result in the test with Mouse serum albumin [6], in the test with Rat serum albumin [7], with Pig serum albumin [8], in the test with Dog serum albumin [9] and with Cow serum albumin was “no binding (tested: 300 nM)” throughout. Also, the koff with Human serum albumin is 0.011 s⁻¹.

B4: VHH moiety 9 (MC6.1C22-R27A) (VHH)
VHH: EVQLLESGGGLVQPGGSLRLSCAASGAYIDETAVAWFRQAPGKEREFVAGIGGGVDITYYADSVKGRFTISRDNSKNTLYLQMNSLRPEDTAVYYCAARPGRPLITSKVADLYPYWGQGTLVTVSS
For B4, the koff stood at 0.0012 s⁻¹ in the test with Human serum albumin; 0.0032 s⁻¹ in test [1]; 0.013 s⁻¹ with Mouse serum albumin [2]; 0.011 s⁻¹ with Rat serum albumin [3]; 0.012 s⁻¹ in the test with Pig serum albumin [4]; 0.011 s⁻¹ with Dog serum albumin [5].

B5: VHH moiety 11 (MC6.1C22-157Q) (VHH)
VHH: EVQLLESGGGLVQPGGSLRLSCAASGRYIDETAVAWFRQAPGKEREFVAGIGGGVDQTYYADSVKGRFTISRDNSKNTLYLQMNSLRPEDTAVYYCAARPGRPLITSKVADLYPYWGQGTLVTVSS
notes: name printed as 157Q
For the molecule B5, the binding result with Mouse serum albumin [6], in the test with Rat serum albumin [7], with Pig serum albumin [8], in the test with Dog serum albumin [9] and with Cow serum albumin was “no binding (tested: 300 nM)” in each case. The koff with Human serum albumin came out at 0.0074 s⁻¹.

B6: VHH moiety 18 (MC6.1C22-R102Q) (VHH)
VHH: EVQLLESGGGLVQPGGSLRLSCAASGRYIDETAVAWFRQAPGKEREFVAGIGGGVDITYYADSVKGRFTISRDNSKNTLYLQMNSLRPEDTAVYYCAARPGQPLITSKVADLYPYWGQGTLVTVSS
As to B6, the binding result with Cow serum albumin is “no binding (tested: 300 nM)”. For the same molecule, the koff with Human serum albumin came out at 0.0076 s⁻¹; in test [1] it was 0.0072 s⁻¹; with Rat serum albumin [3], 0.014 s⁻¹; in the test with Dog serum albumin [5], 0.015 s⁻¹.

B7: VHH moiety 15 (MC6.1C22-Y59S) (VHH)
VHH: EVQLLESGGGLVQPGGSLRLSCAASGRYIDETAVAWFRQAPGKEREFVAGIGGGVDITSYADSVKGRFTISRDNSKNTLYLQMNSLRPEDTAVYYCAARPGRPLITSKVADLYPYWGQGTLVTVSS
As to B7, the binding result with Mouse serum albumin [6], with Rat serum albumin [7], with Pig serum albumin [8], with Dog serum albumin [9] and in the test with Cow serum albumin was “no binding (tested: 300 nM)” each time. For the same molecule, the koff with Human serum albumin was found to be 0.0058 s⁻¹.

B8: VHH moiety 19 (MC6.1C22-R102S) (VHH)
VHH: EVQLLESGGGLVQPGGSLRLSCAASGRYIDETAVAWFRQAPGKEREFVAGIGGGVDITYYADSVKGRFTISRDNSKNTLYLQMNSLRPEDTAVYYCAARPGSPLITSKVADLYPYWGQGTLVTVSS
Regarding B8, in the test with Cow serum albumin, the binding result is recorded as “no binding (tested: 300 nM)”. The koff is 0.0045 s⁻¹ with Human serum albumin; 0.0073 s⁻¹ in test [1]; 0.015 s⁻¹ in the test with Mouse serum albumin [2]; 0.015 s⁻¹ in the test with Rat serum albumin [3]; 0.014 s⁻¹ in the test with Pig serum albumin [4]; 0.014 s⁻¹ with Dog serum albumin [5].

B9: VHH moiety 21 (MC6.1C22-P103Q) (VHH)
VHH: EVQLLESGGGLVQPGGSLRLSCAASGRYIDETAVAWFRQAPGKEREFVAGIGGGVDITYYADSVKGRFTISRDNSKNTLYLQMNSLRPEDTAVYYCAARPGRQLITSKVADLYPYWGQGTLVTVSS
Consider B9, for which the koff in the test with Human serum albumin stood at 0.0025 s⁻¹; in test [1], 0.014 s⁻¹; with Mouse serum albumin [2], 0.013 s⁻¹; with Rat serum albumin [3] it was 0.011 s⁻¹; with Pig serum albumin [4], 0.01 s⁻¹; with Dog serum albumin [5] it was 0.0081 s⁻¹.

B10: VHH moiety 22 (MC6.1C22-P103S) (VHH)
VHH: EVQLLESGGGLVQPGGSLRLSCAASGRYIDETAVAWFRQAPGKEREFVAGIGGGVDITYYADSVKGRFTISRDNSKNTLYLQMNSLRPEDTAVYYCAARPGRSLITSKVADLYPYWGQGTLVTVSS
With B10, the koff is 0.0028 s⁻¹ with Human serum albumin; 0.014 s⁻¹ in test [1]; 0.01 s⁻¹ with Mouse serum albumin [2]; 0.01 s⁻¹ with Rat serum albumin [3]; 0.011 s⁻¹ in the test with Pig serum albumin [4]; 0.0074 s⁻¹ in the test with Dog serum albumin [5].

B11: VHH moiety 39 (MC6.1C90.43) (VHH)
VHH: EVQLLESGGGLVQPGGSLRLSCAASGRYIDETAVAWFRQAPGKGREFVAGIGGGVDITYYADSVKGRFTISRDNSKNTLYLQMNSLRPEDTAVYYCGARPGRPLITSKVADLYPYWGQGTLVTVSS
As for B11, the koff with Human serum albumin stood at 9.4e-05 s⁻¹; in test [1] it was 0.0006 s⁻¹; with Mouse serum albumin [2], 0.0056 s⁻¹; with Rat serum albumin [3], 0.0038 s⁻¹; with Pig serum albumin [4], 0.0065 s⁻¹; with Dog serum albumin [5] it was 0.0021 s⁻¹.

B12: VHH moiety 10 (MC6.1C22-157E) (VHH)
VHH: EVQLLESGGGLVQPGGSLRLSCAASGRYIDETAVAWFRQAPGKEREFVAGIGGGVDETYYADSVKGRFTISRDNSKNTLYLQMNSLRPEDTAVYYCAARPGRPLITSKVADLYPYWGQGTLVTVSS
notes: name printed as 157E
Consider B12, for which, in the test with Cow serum albumin, the binding result is listed as “no binding (tested: 300 nM)”.

B13: VHH moiety 40 (MC6.1C95.43) (VHH)
VHH: EVQLLESGGGLVQPGGSLRLSCAASGRYIDETAVAWFRQAPGKGREFVAGIGGGVDITYYADSVKGRFTISRDNSKNTLYLQMNSLRPEDTAVYYCGTRPGRPLITSKVADLYPYWGQGTLVTVSS
With B13, the koff with Human serum albumin turned out to be 0.00014 s⁻¹; in [1], 0.00072 s⁻¹; with Mouse serum albumin [2], 0.0054 s⁻¹; with Rat serum albumin [3] it was 0.0053 s⁻¹; with Pig serum albumin [4], 0.0058 s⁻¹; with Dog serum albumin [5] it was 0.0021 s⁻¹.

One may read the koff as a measure of how fast the partners let go of each other.
